{"source": "paper PMC5579359", "about": "“Sensing of viral and endogenous RNA by ZBP1/DAI induces necroptosis” (The EMBO Journal, 2017)", "proteins": {"B1": {"name": "MLKL (natural protein, mouse (endogenous in NIH3T3), UniProt Q9D2Y4 1-472, looked up)", "chain": "MDKLGQIIKLGQLIYEQCEKMKYCRKQCQRLGNRVHGLLQPLQRLQAQGKKNLPDDITAALGRFDEVLKEANQQIEKFSKKSHIWKFVSVGNDKILFHEVNEKLRDVWEELLLLLQVYHWNTVSDVSQPASWQQEDRQDAEEDGNENMKVILMQLQISVEEINKTLKQCSLKPTQEIPQDLQIKEIPKEHLGPPWTKLKTSKMSTIYRGEYHRSPVTIKVFNNPQAESVGIVRFTFNDEIKTMKKFDSPNILRIFGICIDQTVKPPEFSIVMEYCELGTLRELLDREKDLTMSVRSLLVLRAARGLYRLHHSETLHRNISSSSFLVAGGYQVKLAGFELSKTQNSISRTAKSTKAERSSSTIYVSPERLKNPFCLYDIKAEIYSFGIVLWEIATGKIPFEGCDSKKIRELVAEDKKQEPVGQDCPELLREIINECRAHEPSQRPSVDGRSLSGRERILERLSAVEESTDKKV", "notes": "also called pseudokinase MLKL; source: endogenous, NIH3T3 cell and primary MEF lysates"}}, "target": "the molecule itself", "test": "non-reducing SDS-PAGE and Western blot"}
{"protein": "B1", "values": [{"measurement": "stoichiometry N", "value": 3}]}
